Here are results for two molecules from patent US20240408248A1, “GRANZYME B-TARGETING COMPLEX, RADIOPHARMACEUTICAL, PREPARATION METHOD THEREFOR AND USE THEREOF” (priority 2021, published 2024).

The target in data set [1] is T1, tumor Granzyme B (Mus musculus, UniProt P04187).
T1 construct: from tissue; host or cells: MC38 tumors in living C57 mice
T1 sequence (P04187 21-247): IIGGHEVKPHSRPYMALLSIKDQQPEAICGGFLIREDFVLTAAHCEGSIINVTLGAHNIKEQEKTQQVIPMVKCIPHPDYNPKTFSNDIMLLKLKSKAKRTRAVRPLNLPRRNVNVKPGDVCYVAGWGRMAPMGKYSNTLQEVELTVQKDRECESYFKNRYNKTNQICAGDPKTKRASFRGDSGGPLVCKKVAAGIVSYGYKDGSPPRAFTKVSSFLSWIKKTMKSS
Put plainly: SPECT/CT imaging of tumor Granzyme B in MC38 tumor-bearing mice. The format is in vivo, C57 mice. To be noted: 18.5 MBq via tail vein, 0.5 h after injection. As for the experimental part: SPECT imaging of tumor Granzyme B with a ^99mTc-labeled HYNIC complex. 18.5 MBq of the freshly prepared ^99mTc-labeled HYNIC complex was taken and injected into female C57 mice bearing MC38 tumors in the right axilla via the tail vein. After injection for 0.5 h, the animals were anesthetized with isoflurane for SPECT/CT imaging.

Data set [2] has as its target T2, Granzyme B in MC38 tumors (Mus musculus, UniProt P04187).
T2 construct: from tissue; host or cells: MC38 tumors in living C57 mice
T2 sequence (P04187 21-247): T1 sequence (P04187 21-247)
Also on record: species or system C57 mice. To be noted: in vivo. As for the experimental part:
(§1) MC38 and 4T1 tumor cells were inoculated subcutaneously in the right axilla of C57 and BALB/c mice, respectively, to establish immunotherapy pseudo-progression and true-progression mouse models. 200 μg of the anti-PD-1 antibody and anti-CTLA-4 antibody were injected intraperitoneally for a total of 3 times on days 0, 3 and 6, respectively. […] After injection for 0.5 h, the animals were anesthetized with isoflurane for PET/CT imaging. The changes of the tumor size in MC38 and 4T1 tumor-bearing mice were measured by a vernier caliper.

The target of data set [3] is T1, tumor Granzyme B. Put plainly: PET/CT imaging in MC38 tumor-bearing mice, comparison with radiopharmaceuticals with similar structures. The following applies: 7.4 MBq via tail vein, 0.5 h after injection, compared with the other three comparative radiopharmaceuticals. Format: in vivo, C57 mice. As for the experimental part:
In order to compare the in vivo nuclear medicine imaging advantages of the Granzyme B-targeting complex of the present invention, three Granzyme B-targeting complexes with similar structures are prepared by a similar synthesis method. All of them were labeled with ^68Ga after DOTA coupling to obtain the corresponding Granzyme B-targeting radioactive compounds. 7.4 MBq of the freshly prepared ^68Ga-labeled complex was taken and injected into female C57 mice bearing MC38 tumors via the tail vein. After injection for 0.5 h, the animals were anesthetized with isoflurane for PET/CT imaging. The result is illustrated in FIG. 11, showing that the ^68Ga-labelled DOTA complex of the present invention had optimal tumor Granzyme B uptake and low normal tissue (e.g. gastrointestinal tract) uptake compared with the other three comparative radiopharmaceuticals.

In data set [4] the target is T3, Granzyme B in 4T1 tumors (Mus musculus, UniProt P04187).
T3 construct: from tissue; host or cells: 4T1 tumors in living BALB/c mice
T3 sequence (P04187 21-247): T1 sequence (P04187 21-247)
Also on record: species or system BALB/c mice. The following applies: in vivo. The method, then:
as §1

On to `CC[C@H](C)[C@H](NC(=O)Cc1cccc(CNC(=O)C[C@H](NC(=O)C[C@H](NC(=O)c2ccc(NN)nc2)C(=O)O)C(=O)O)c1)C(=O)N[C@H]1CCc2cccc3c2N(C1=O)[C@H](C(=O)NCc1cn[nH]n1)C3` [^99mTc-labeled HYNIC complex, metal not drawn], for which the “uptake value in MC38 tumors (SPECT)” value in data set [1] is recorded as “good uptake value”.
Consider `CC[C@H](C)[C@H](NC(=O)Cc1cccc(CNC(=O)C[C@H](NC(=O)C[C@H](NC(=O)CN2CCN(CC(=O)O)CCN(CC(=O)O)CCN(CC(=O)O)CC2)C(=O)O)C(=O)O)c1)C(=O)N[C@H]1CCc2cccc3c2N(C1=O)[C@H](C(=O)NCc1cn[nH]n1)C3` [^68Ga-labeled DOTA complex, metal not drawn], for which the “tumor uptake at day 6 versus day 0” value in data set [2] is on record as “significantly higher than that at day 0”. Moreover, in data set [3], the “normal tissue (e.g. gastrointestinal tract) uptake” value is “low”. Moreover, the “tumor uptake on day 6 versus day 0” value in data set [4] was “no significant difference”.
